Measured values published in the supplement of paper PMC11908140.

B1: library; numbered along this chain (parent)
chain: MRKPRAAVGSGHRKQAASQEGRQKHAKNNSQAKPSACDGLARQPEEVVLQASVSSYHLFRDVAEVTAFRGSLLSWYDQEKRDLPWRRRAEDEMDLDRRAYAVWVSEVMLQQTQVATVINYYTGWMQKWPTLQDLASASLEEVNQLWAGLGYYSRGRRLQEGARKVVEELGGHMPRTAETLQQLLPGVGRYTAGAIASIAFGQATGVVDGNVARVLCRVRAIGADPSSTLVSQQLWGLAQQLVDPARPGDFNQAAMELGATVCTPQRPLCSQCPVESLCRARQRVEQEQLLASGSLSGSPDVEECAPNTGQCHLCLPPSEPWDQTLGVVNFPRKASRKPPREESSATCVLEQPGALGAQILLVQRPNSGLLAGLWEFPSVTWEPSEQLQRKALLQELQRWAGPLPATHLRHLGEVVHTFSHIKLTYQVYGLALEGQTPVTTVPPGARWLTQEEFHTAAVSTAMKKVFRVYQGQQPGTCMGSKRSQVSSPCSRKKPRMGQQVLDNFFRSHISTDAHSLNSAAQ

Variants of: B1
Test: 8OG:A repair function score (normalized; synonymous = 0, nonsense = -1) (normalized log-likelihood score); higher = more repair activity (WT-like)
Conditions: with 8OG:A DNA repair reporter (GFP) in HEK-293 MUTYH KO cells
Procedure, shortened: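 With 10 pg/ml doxycycline, MUTYH knockout HEK-293 cells carrying lentiviral MUTYH cDNA NNN codon-scan libraries were co-transfected with mCherry and an 8OG:A GFP repair reporter. Viable mCherry+ cells were sorted into GFP+ (repair) and GFP− bins at 72 h, three replicates per tile, and tile amplicons were sequenced. Per-tile Rosace fitness scores were then normalized into a repair function score anchored on synonymous and nonsense distributions. Medians were fixed at 0 for synonymous and -1 for nonsense, excluding variants under 300 counts per million at the start.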

Row | Variant | 8OG:A repair function score
1 | MRKPRAAVGSGHRKQAASQEGRQKHAKNNSQAKPSACDGLARQPEEVVLQASVSSYHLFRDVAEVTAFRGSLLSWYDQEKRDLPWRRRAEDEMDLDRRAYAVWVSEVMLQQTQVATVINYYTGWMQKWPTLQDLASASLEEVNQLWAGLGYYSRGRRLQEGARKVVEELGGHMPRTAETLQQLLPGVGRYTAGAIASIAFGQATGVVDGNVARVLCRVRAIGADPSSTLVSQQLWGLAQQLVDEARPGDFNQAAMELGATVCTPQRPLCSQCPVESLCRARQRVEQEQLLASGSLSGSPDVEECAPNTGQCHLCLPPSEPWDQTLGVVNFPRKASRKPPREESSATCVLEQPGALGAQILLVQRPNSGLLAGLWEFPSVTWEPSEQLQRKALLQELQRWAGPLPATHLRHLGEVVHTFSHIKLTYQVYGLALEGQTPVTTVPPGARWLTQEEFHTAAVSTAMKKVFRVYQGQQPGTCMGSKRSQVSSPCSRKKPRMGQQVLDNFFRSHISTDAHSLNSAAQ [P244E] | -0.105
2 | MRKPRAAVGSGHRKQAASQEGRQKHAKNNSQAKPSACDGLARQPEEVVLQASVSSYHLFRDVAEVTAFRGSLLSWYDQEKRDLPWRRRAEDEMDLDRRAYAVWVSEVMLQQTQVATVINYYTGWMQKWPTLQDLASASLEEVNQLWAGLGYYSRGRRLQEGARKVVEELGGHMPRTAETLQQLLPGVGRYTAGAIASIAFGQATGVVDGNVARVLCRVRAIGADPSSTLVSQQLWGLAQQLVDCARPGDFNQAAMELGATVCTPQRPLCSQCPVESLCRARQRVEQEQLLASGSLSGSPDVEECAPNTGQCHLCLPPSEPWDQTLGVVNFPRKASRKPPREESSATCVLEQPGALGAQILLVQRPNSGLLAGLWEFPSVTWEPSEQLQRKALLQELQRWAGPLPATHLRHLGEVVHTFSHIKLTYQVYGLALEGQTPVTTVPPGARWLTQEEFHTAAVSTAMKKVFRVYQGQQPGTCMGSKRSQVSSPCSRKKPRMGQQVLDNFFRSHISTDAHSLNSAAQ [P244C] | -0.39
3 | MRKPRAAVGSGHRKQAASQEGRQKHAKNNSQAKPSACDGLARQPEEVVLQASVSSYHLFRDVAEVTAFRGSLLSWYDQEKRDLPWRRRAEDEMDLDRRAYAVWVSEVMLQQTQVATVINYYTGWMQKWPTLQDLASASLEEVNQLWAGLGYYSRGRRLQEGARKVVEELGGHMPRTAETLQQLLPGVGRYTAGAIASIAFGQATGVVDGNVARVLCRVRAIGADPSSTLVSQQLWGLAQQLVDAARPGDFNQAAMELGATVCTPQRPLCSQCPVESLCRARQRVEQEQLLASGSLSGSPDVEECAPNTGQCHLCLPPSEPWDQTLGVVNFPRKASRKPPREESSATCVLEQPGALGAQILLVQRPNSGLLAGLWEFPSVTWEPSEQLQRKALLQELQRWAGPLPATHLRHLGEVVHTFSHIKLTYQVYGLALEGQTPVTTVPPGARWLTQEEFHTAAVSTAMKKVFRVYQGQQPGTCMGSKRSQVSSPCSRKKPRMGQQVLDNFFRSHISTDAHSLNSAAQ [P244A] | -0.238
4 | MRKPRAAVGSGHRKQAASQEGRQKHAKNNSQAKPSACDGLARQPEEVVLQASVSSYHLFRDVAEVTAFRGSLLSWYDQEKRDLPWRRRAEDEMDLDRRAYAVWVSEVMLQQTQVATVINYYTGWMQKWPTLQDLASASLEEVNQLWAGLGYYSRGRRLQEGARKVVEELGGHMPRTAETLQQLLPGVGRYTAGAIASIAFGQATGVVDGNVARVLCRVRAIGADPSSTLVSQQLWGLAQQLVDHARPGDFNQAAMELGATVCTPQRPLCSQCPVESLCRARQRVEQEQLLASGSLSGSPDVEECAPNTGQCHLCLPPSEPWDQTLGVVNFPRKASRKPPREESSATCVLEQPGALGAQILLVQRPNSGLLAGLWEFPSVTWEPSEQLQRKALLQELQRWAGPLPATHLRHLGEVVHTFSHIKLTYQVYGLALEGQTPVTTVPPGARWLTQEEFHTAAVSTAMKKVFRVYQGQQPGTCMGSKRSQVSSPCSRKKPRMGQQVLDNFFRSHISTDAHSLNSAAQ [P244H] | -0.418
5 | MRKPRAAVGSGHRKQAASQEGRQKHAKNNSQAKPSACDGLARQPEEVVLQASVSSYHLFRDVAEVTAFRGSLLSWYDQEKRDLPWRRRAEDEMDLDRRAYAVWVSEVMLQQTQVATVINYYTGWMQKWPTLQDLASASLEEVNQLWAGLGYYSRGRRLQEGARKVVEELGGHMPRTAETLQQLLPGVGRYTAGAIASIAFGQATGVVDGNVARVLCRVRAIGADPSSTLVSQQLWGLAQQLVDIARPGDFNQAAMELGATVCTPQRPLCSQCPVESLCRARQRVEQEQLLASGSLSGSPDVEECAPNTGQCHLCLPPSEPWDQTLGVVNFPRKASRKPPREESSATCVLEQPGALGAQILLVQRPNSGLLAGLWEFPSVTWEPSEQLQRKALLQELQRWAGPLPATHLRHLGEVVHTFSHIKLTYQVYGLALEGQTPVTTVPPGARWLTQEEFHTAAVSTAMKKVFRVYQGQQPGTCMGSKRSQVSSPCSRKKPRMGQQVLDNFFRSHISTDAHSLNSAAQ [P244I] | -0.574
6 | MRKPRAAVGSGHRKQAASQEGRQKHAKNNSQAKPSACDGLARQPEEVVLQASVSSYHLFRDVAEVTAFRGSLLSWYDQEKRDLPWRRRAEDEMDLDRRAYAVWVSEVMLQQTQVATVINYYTGWMQKWPTLQDLASASLEEVNQLWAGLGYYSRGRRLQEGARKVVEELGGHMPRTAETLQQLLPGVGRYTAGAIASIAFGQATGVVDGNVARVLCRVRAIGADPSSTLVSQQLWGLAQQLVDGARPGDFNQAAMELGATVCTPQRPLCSQCPVESLCRARQRVEQEQLLASGSLSGSPDVEECAPNTGQCHLCLPPSEPWDQTLGVVNFPRKASRKPPREESSATCVLEQPGALGAQILLVQRPNSGLLAGLWEFPSVTWEPSEQLQRKALLQELQRWAGPLPATHLRHLGEVVHTFSHIKLTYQVYGLALEGQTPVTTVPPGARWLTQEEFHTAAVSTAMKKVFRVYQGQQPGTCMGSKRSQVSSPCSRKKPRMGQQVLDNFFRSHISTDAHSLNSAAQ [P244G] | -0.385
7 | MRKPRAAVGSGHRKQAASQEGRQKHAKNNSQAKPSACDGLARQPEEVVLQASVSSYHLFRDVAEVTAFRGSLLSWYDQEKRDLPWRRRAEDEMDLDRRAYAVWVSEVMLQQTQVATVINYYTGWMQKWPTLQDLASASLEEVNQLWAGLGYYSRGRRLQEGARKVVEELGGHMPRTAETLQQLLPGVGRYTAGAIASIAFGQATGVVDGNVARVLCRVRAIGADPSSTLVSQQLWGLAQQLVDDARPGDFNQAAMELGATVCTPQRPLCSQCPVESLCRARQRVEQEQLLASGSLSGSPDVEECAPNTGQCHLCLPPSEPWDQTLGVVNFPRKASRKPPREESSATCVLEQPGALGAQILLVQRPNSGLLAGLWEFPSVTWEPSEQLQRKALLQELQRWAGPLPATHLRHLGEVVHTFSHIKLTYQVYGLALEGQTPVTTVPPGARWLTQEEFHTAAVSTAMKKVFRVYQGQQPGTCMGSKRSQVSSPCSRKKPRMGQQVLDNFFRSHISTDAHSLNSAAQ [P244D] | -0.291
8 | MRKPRAAVGSGHRKQAASQEGRQKHAKNNSQAKPSACDGLARQPEEVVLQASVSSYHLFRDVAEVTAFRGSLLSWYDQEKRDLPWRRRAEDEMDLDRRAYAVWVSEVMLQQTQVATVINYYTGWMQKWPTLQDLASASLEEVNQLWAGLGYYSRGRRLQEGARKVVEELGGHMPRTAETLQQLLPGVGRYTAGAIASIAFGQATGVVDGNVARVLCRVRAIGADPSSTLVSQQLWGLAQQLVDFARPGDFNQAAMELGATVCTPQRPLCSQCPVESLCRARQRVEQEQLLASGSLSGSPDVEECAPNTGQCHLCLPPSEPWDQTLGVVNFPRKASRKPPREESSATCVLEQPGALGAQILLVQRPNSGLLAGLWEFPSVTWEPSEQLQRKALLQELQRWAGPLPATHLRHLGEVVHTFSHIKLTYQVYGLALEGQTPVTTVPPGARWLTQEEFHTAAVSTAMKKVFRVYQGQQPGTCMGSKRSQVSSPCSRKKPRMGQQVLDNFFRSHISTDAHSLNSAAQ [P244F] | -0.422
9 | MRKPRAAVGSGHRKQAASQEGRQKHAKNNSQAKPSACDGLARQPEEVVLQASVSSYHLFRDVAEVTAFRGSLLSWYDQEKRDLPWRRRAEDEMDLDRRAYAVWVSEVMLQQTQVATVINYYTGWMQKWPTLQDLASASLEEVNQLWAGLGYYSRGRRLQEGARKVVEELGGHMPRTAETLQQLLPGVGRYTAGAIASIAFGQATGVVDGNVARVLCRVRAIGADPSSTLVSQQLWGLAQQLVDKARPGDFNQAAMELGATVCTPQRPLCSQCPVESLCRARQRVEQEQLLASGSLSGSPDVEECAPNTGQCHLCLPPSEPWDQTLGVVNFPRKASRKPPREESSATCVLEQPGALGAQILLVQRPNSGLLAGLWEFPSVTWEPSEQLQRKALLQELQRWAGPLPATHLRHLGEVVHTFSHIKLTYQVYGLALEGQTPVTTVPPGARWLTQEEFHTAAVSTAMKKVFRVYQGQQPGTCMGSKRSQVSSPCSRKKPRMGQQVLDNFFRSHISTDAHSLNSAAQ [P244K] | 0.065
10 | MRKPRAAVGSGHRKQAASQEGRQKHAKNNSQAKPSACDGLARQPEEVVLQASVSSYHLFRDVAEVTAFRGSLLSWYDQEKRDLPWRRRAEDEMDLDRRAYAVWVSEVMLQQTQVATVINYYTGWMQKWPTLQDLASASLEEVNQLWAGLGYYSRGRRLQEGARKVVEELGGHMPRTAETLQQLLPGVGRYTAGAIASIAFGQATGVVDGNVARVLCRVRAIGADPSSTLVSQQLWGLAQQLVVPARPGDFNQAAMELGATVCTPQRPLCSQCPVESLCRARQRVEQEQLLASGSLSGSPDVEECAPNTGQCHLCLPPSEPWDQTLGVVNFPRKASRKPPREESSATCVLEQPGALGAQILLVQRPNSGLLAGLWEFPSVTWEPSEQLQRKALLQELQRWAGPLPATHLRHLGEVVHTFSHIKLTYQVYGLALEGQTPVTTVPPGARWLTQEEFHTAAVSTAMKKVFRVYQGQQPGTCMGSKRSQVSSPCSRKKPRMGQQVLDNFFRSHISTDAHSLNSAAQ [D243V] | -0.767
11 | MRKPRAAVGSGHRKQAASQEGRQKHAKNNSQAKPSACDGLARQPEEVVLQASVSSYHLFRDVAEVTAFRGSLLSWYDQEKRDLPWRRRAEDEMDLDRRAYAVWVSEVMLQQTQVATVINYYTGWMQKWPTLQDLASASLEEVNQLWAGLGYYSRGRRLQEGARKVVEELGGHMPRTAETLQQLLPGVGRYTAGAIASIAFGQATGVVDGNVARVLCRVRAIGADPSSTLVSQQLWGLAQQLVWPARPGDFNQAAMELGATVCTPQRPLCSQCPVESLCRARQRVEQEQLLASGSLSGSPDVEECAPNTGQCHLCLPPSEPWDQTLGVVNFPRKASRKPPREESSATCVLEQPGALGAQILLVQRPNSGLLAGLWEFPSVTWEPSEQLQRKALLQELQRWAGPLPATHLRHLGEVVHTFSHIKLTYQVYGLALEGQTPVTTVPPGARWLTQEEFHTAAVSTAMKKVFRVYQGQQPGTCMGSKRSQVSSPCSRKKPRMGQQVLDNFFRSHISTDAHSLNSAAQ [D243W] | -0.67
12 | MRKPRAAVGSGHRKQAASQEGRQKHAKNNSQAKPSACDGLARQPEEVVLQASVSSYHLFRDVAEVTAFRGSLLSWYDQEKRDLPWRRRAEDEMDLDRRAYAVWVSEVMLQQTQVATVINYYTGWMQKWPTLQDLASASLEEVNQLWAGLGYYSRGRRLQEGARKVVEELGGHMPRTAETLQQLLPGVGRYTAGAIASIAFGQATGVVDGNVARVLCRVRAIGADPSSTLVSQQLWGLAQQLVYPARPGDFNQAAMELGATVCTPQRPLCSQCPVESLCRARQRVEQEQLLASGSLSGSPDVEECAPNTGQCHLCLPPSEPWDQTLGVVNFPRKASRKPPREESSATCVLEQPGALGAQILLVQRPNSGLLAGLWEFPSVTWEPSEQLQRKALLQELQRWAGPLPATHLRHLGEVVHTFSHIKLTYQVYGLALEGQTPVTTVPPGARWLTQEEFHTAAVSTAMKKVFRVYQGQQPGTCMGSKRSQVSSPCSRKKPRMGQQVLDNFFRSHISTDAHSLNSAAQ [D243Y] | -0.667
